Reference: PMC7927433 (The Journal of Experimental Medicine, 2020)

Target: T1, recombinant XPF-HA (human, UniProt Q92889 1-916)
T1 sequence: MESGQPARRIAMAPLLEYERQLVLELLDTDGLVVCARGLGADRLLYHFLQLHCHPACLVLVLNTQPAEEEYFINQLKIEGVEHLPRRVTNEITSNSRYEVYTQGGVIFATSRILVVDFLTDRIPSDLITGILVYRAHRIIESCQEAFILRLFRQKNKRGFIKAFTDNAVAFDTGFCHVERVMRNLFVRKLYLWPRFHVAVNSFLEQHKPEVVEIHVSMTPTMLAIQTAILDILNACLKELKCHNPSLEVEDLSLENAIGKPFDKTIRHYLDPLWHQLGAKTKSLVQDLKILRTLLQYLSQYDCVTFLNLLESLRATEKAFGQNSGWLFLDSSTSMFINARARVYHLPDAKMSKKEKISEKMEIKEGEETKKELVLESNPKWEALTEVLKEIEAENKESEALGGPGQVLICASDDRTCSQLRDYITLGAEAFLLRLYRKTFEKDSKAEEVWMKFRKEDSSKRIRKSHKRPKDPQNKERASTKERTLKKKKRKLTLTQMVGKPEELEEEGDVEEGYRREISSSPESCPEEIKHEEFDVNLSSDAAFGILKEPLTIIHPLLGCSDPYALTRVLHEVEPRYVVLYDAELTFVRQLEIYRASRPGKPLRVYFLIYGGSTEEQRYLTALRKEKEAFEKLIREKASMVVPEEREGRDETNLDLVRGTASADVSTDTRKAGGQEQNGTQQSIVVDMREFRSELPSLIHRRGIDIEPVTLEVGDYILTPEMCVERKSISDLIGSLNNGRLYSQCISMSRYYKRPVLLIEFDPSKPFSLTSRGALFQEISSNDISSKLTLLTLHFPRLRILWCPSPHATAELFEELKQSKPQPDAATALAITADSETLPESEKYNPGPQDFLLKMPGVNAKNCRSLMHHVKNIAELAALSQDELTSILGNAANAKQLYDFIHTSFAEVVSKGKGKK
Assay: SEC

binding result: binds
B1: recombinant ERCC1^R156W-His (natural protein)
chain: MDPGKDKEGVPQPSGPPARKKFVIPLDEDEVPPGVAKPLFRSTQSLPTVDTSAQAAPQTYAEYAISQPLEGAGATCPTGSEPLAGETPNQALKPGAKSNSIIVSPRQRGNPVLKFVRNVPWEFGDVIPDYVLGQSTCALFLSLRYHNLHPDYIHGWLQSLGKNFALRVLLVQVDVKDPQQALKELAKMCILADCTLILAWSPEEAGRYLETYKAYEQKPADLLMEKLEQDFVSRVTECLTTVKSVNKTDSQTLLTTFGSLEQLIAASREDLALCPGLGPQKARRLFDVLHEPFLKVP
